What follows are sequences tested on Escherichia coli TOP10 (assay: shrunken log2 fold change of peptide-encoding DNA abundance (4.5 h post-induction vs induction); higher = less antimicrobial activity (less host growth inhibition)). Details: time post-induction: 4.5 h; library: site-saturation at positions 5, 18, 19, 20.
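Note: peptides expressed intracellularly from a pBAD plasmid library in pooled LB shake-flask culture, induced with 0.3% L-arabinose, DNA abundance read by NGS, three biological replicates, DESeq2 with apeglm shrinkage.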

Sequence | shrunken log2 fold change
RRIRTRPPRLPRPRPRPLPPPRP | 0.333
RRIRDRPPRLPRPRPRPGLNPRP | 0.184
RRIRARPPRLPRPRPRPFSDPRP | -0.169
RRIRPRPPRLPRPRPRPHVMPRP | -0.0285

Source: the supplement of paper PMC9112550, “Optimization of the antimicrobial peptide Bac7 by deep mutational scanning” (BMC Biology, 2022)
